Assay results published in patent US11339371B2, “Method for inducing pluripotent stem cells to differentiate into ventricular myocytes in vitro” (Institute of Biophysics, Chinese Academy of Sciences, priority 2012, dated 2022).

B1: BMP4: bone morphogenetic protein, growth factor activating Smad1/5/8 signaling; purchased from R&D systems (protein, UniProt P12644 293-408, looked up)
Bone morphogenetic protein 4: SPKHHSQRARKKNKNCRRHSLYVDFSDVGWNDWIVAPPGYQAFYCHGDCPFPLADHLNSTNHAIVQTLVNSVNSSIPKACCVPTELSAISMLYLDEYDKVVLKNYQEMVVEGCGCR
B2: noggin: BMP2/4 pathway inhibitor (BMP antagonist); purchased from R&D systems (protein, UniProt Q13253 28-232, looked up)
Noggin: QHYLHIRPAPSDNLPLVDLIEHPDPIFDPKEKDLNETLLRSLLGGHYDPGFMATSPPEDRPGGGGGAAGGAEDLAELDQLLRQRPSGAMPSEIKGLEFSEGLAQGKKQRLSKKLRRKLQMWLWSQTFCPVLYAWNDLGSRFWPRYVKVGSCFSKRSCSVPEGMVCKPSKSVHLTVLRWRCQRRGGQRCGWIPIQYPIISECKCSC

How the values were obtained:
Type in all cases: cell-based, human
[1] = system: IRX-4; test: quantitative RT-PCR of ventricle-specific early marker gene IRX-4 at day 14 of differentiation; details: for IRX-4 expression level (FIG. 2A): added to the cultures at various concentrations, relative to GADPH
Text: T-Smad1/5/8 represents total Smad1/5/8 proteins. β-actin served as an internal loading control. The histogram in FIG. 1C presents the experimental results of quantitative RT-PCR analysis of IRX-4 gene expression levels at 14 days of differentiation. […] Connected line indicates the cardiac differentiation efficiency of the stem cells under the corresponding inductive conditions. N represents noggin, B represents BMP4; NVa represents differentiated cells cultured in vitamin A-free medium; RA represents retinoic acid; and numbers represent the concentrations (Unit for BMP4 is ng/mL). Data are expressed as relative values compared with the expression level of glyceraldehyde-3-phosphate dehydrogenase (GADPH).
FIG. 2 presents quantitative RT-PCR analysis of the expression levels of the ventricle-specific early marker gene IRX-4 at day 14 in differentiated cultures with various treatments. […] However, the expression level is reduced by addition of a BMP antagonist, noggin. […] N represents noggin; B represents BMP4, NVa represents differentiated cells treated in vitamin A-free medium; RA represents retinoic acid; and numbers represents the concentrations (Unit is ng/mL). The results of quantitative RT-PCR are indicated as relative values compared with the expression levels of GADPH.
RA represents retinoic acid; RAi represents a retinoic acid inhibitor, BMS189453; NVa represents vitamin A-free medium; The RAR pan-antagonist is BMS493. The results of quantitative RT-PCR are expressed as relative values compared with cTNT expression
2) The role of the BMP pathway in directed differentiation of CM subtypes was analyzed further during cardiac differentiation of stem cells. IRX-4 is a marker gene expressed during early differentiation of VMs. Thus, the IRX-4 expression level was measured to further study the role of the BMP pathway in differentiation of CM subtypes.

[2] = system: MLC-2v-expressing VMs among differentiated CMs; test: flow cytometry of MLC-2v-expressing cells among cTNT-expressing CMs at day 90; details: for proportion of MLC-2v-expressing cells among differentiated CMs: day 90
Protocol: (§1) In some embodiments, from about day 14 of differentiation, growth factor-free medium is used and replaced every 3 days. After about 60 to about 90 days of differentiation, the percentage of VMs in the differentiated CMs was determined with the analysis of APs of CMs (recorded by the patch clamp technique), calcium imagining studies, and/or MLC-2v and cardiac troponin T (cTNT) double immunofluorescence staining for flow cytometric analysis.
(§2) RA represents 1 μM retinoic acid; B represents BMP4; NVa represents vitamin A-free medium; N represents noggin; and numbers represent the concentrations (Unit is ng/mL). The RARγ concentration is 0.1 μM.
(§3) 5) As mentioned above, during early differentiation of CMs, IRX-4 is an important gene with specific expression in differentiated VMs. As CMs mature, VMs begin to specifically express the MLC-2v gene. Thus, the MLC-2v expression level was measured in differentiated cells at day 90 of culture after treatment with various growth factors. […] Moreover, flow cytometry was performed to determine the proportion of MLC-2v-expressing VMs among differentiated CMs (cTNT-expressing cells) at day 90. […] The most classical method to identify the subtypes of CMs is to measure the APs of the CMs. The proportions of cells with atrial-, ventricular-, and nodal-like APs among differentiated CMs were analyzed after treatment with retinoic acid and various doses of BMP4 (FIG. 8).

[3] = system: differentiated CMs; test: action potential classification of differentiated CMs (patch clamp); details: for proportion of CMs with ventricular-like APs: treatment alone during middle stage, differentiated CMs at 90 days
Protocol: as §1, §2, §3

[4] = system: BMP2; test: quantitative RT-PCR of BMP2 expression at day 6 of differentiation; details: added with DKK1, vitamin A-free medium
Text: The results of quantitative RT-PCR are indicated as relative values compared with those of GADPH. NVa represents vitamin A-free medium.
Additionally, in vitamin A-containing medium, early specific IRX-4 expression in VMs was activated by addition of DKK1 and antagonists of RARα and RAR. This indicated induced differentiation of stem cells into VMs. Because retinoic acid has three RARs receptors (RARα, RARβ, and RARγ), simultaneous inhibition of RARα and RARβ in the presence of vitamin A or retinoic acid has a similar mechanism and effect as that of independent activation of RARγ alone.

[5] = system: differentiated CMs; test: calcium imaging of differentiated CMs by confocal laser scanning microscopy at 60-90 days; details: 60-90 days of differentiation
Text: FIG. 5 presents images from confocal laser scanning microscopy and simultaneous recordings of APs of calcium activity in differentiated CMs and the classification of the differentiated CMs according to the specific calcium activity patterns in the various types of CMs. […] FIG. 5B presents the proportions of CMs with Ca^2+ sparks, Ca^2+ transients, and Ca^2+ oscillations in different treatments as classified by calcium signaling patterns of the various subtypes of CMs in A. The vertical axis represents the proportions of CMs with the three different calcium activities; RA represents 1 μM retinoic acid; Letter B represents BMP4; NVa represents vitamin A-free medium; N represents noggin; and numbers represent the concentrations (ng/mL).
4) To verify the role of the BMP pathway in regulating the differentiation of VMs from stem cells, calcium activities of cardiomyocytes were recorded with confocal laser scanning microscopy at 60-90 days of differentiation. Calcium activity in VMs clearly differs from that in AMs and nodel cells. Calcium activity in VMs has a higher imaging frequency, known as Ca^+ sparks. […] Thus, comparing the image pattern of calcium activities in CMs is an effective method to distinguish VMs from AMs and nodel cells.

[6] = system: MLC-2v; test: western blot of MLC-2v expression in differentiated cells at day 90
Protocol: FIG. 4B presents the results of double immunofluorescence staining of cTNT and MLC-2v in CMs at day 90 of differentiation after retinoic acid, BMP4, and noggin treatments. Letter B in the figures represents BMP4, NVa represents differentiated cells cultured in vitamin A-free medium; RA represents 1 μM retinoic acid; and numbers represent the concentrations (ng/mL).
as §3

Molecule	ventricle-specific IRX-4 expression ([1]; added along with DKK1 during middle stage of cardiac differentiation, vitamin A-free medium, relative to cTNT)	proportion of MLC-2v-expressing cardiomyocytes in cardiomyocytes population (cTNT-expressing cells) ([2]; 90 days of differentiation, 0.1 μM, vitamin A-free medium)	proportion of CMs with ventricular-like APs [3]	BMP2 expression [4]	IRX-4 expression level in retinoic acid-treated culture ([1]; added simultaneously with 1 μM retinoic acid, day 5 to day 8, various doses)	IRX-4 expression level (FIG. 2A) ([1]; day 14)	proportion of MLC-2v-expressing cells among differentiated CMs ([2]; BMP4 added to cells after retinoic acid treatment)	proportion of MLC-2v-expressing cells among differentiated CMs ([2]; BMP4 treatment alone)	proportion of cells with Ca+ sparks among differentiated CMs ([5]; retinoic acid plus increasing BMP4)	proportion of cells with Ca+ transients among differentiated CMs ([5]; retinoic acid treatment, with or without BMP4)	MLC-2v protein expression level [6]	proportion of cells with ventricular-like APs ([3]; differentiated CMs after retinoic acid treatment, increasing doses of BMP4)	elevation of the IRX-4 expression level by BMP4 in the presence of retinoic acid (FIG. 2D) ([1]; increasing concentrations of noggin, day 14)	IRX-4 expression level ([1]; vitamin A-free medium, added day 5 to day 8 of differentiation, 300, 600, 1200 ng/mL)
CC1(C)CCC(C)(C)c2cc([C@@H](O)C(=O)Nc3ccc(C(=O)O)cc3F)ccc21 [RARγ, reference compound]	high expression	up to 80%	92%	high expression										
B1			more than 90%		increased correspondingly	elevated with increasing concentrations of BMP4	effectively increased	highest proportion	increased with increasing concentrations of BMP4	decreased with increasing concentrations of BMP4	increased with increasing concentrations of BMP4	increased significantly		
B2						reduced							reduced with additions of increasing concentrations of noggin	effectively reduced
